Assay results reported in the supplement of paper PMC12636428.

Tested on: Saccharomyces cerevisiae
Assay: transcriptional activation domain activity (GFP:mCherry ratio, weighted mean of sorted bins, harmonized to initial dataset scale) (arbitrary fluorescence ratio units); higher = stronger transcriptional activation
Conditions: beta-estradiol 1 µM; induction time 4 h
In short: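 After a 1:5 dilution into SC with 1 uM beta-estradiol and 4 hours at 30 °C, yeast diploids carrying a GFP reporter and URA3-integrated barcoded tiles were sorted into 8 bins by GFP:mCherry ratio. The tiles were fused to an estradiol-inducible synthetic transcription factor. Barcodes were sequenced, tiles below 50 reads were discarded, and activation activity was taken as the read-weighted mean of bin median fluorescence, averaged across barcodes and linearly mapped onto the initial dataset scale.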

Sequence | transcriptional activation domain activity
LSQNYLLTWDDSGDWLSLADAGVIAALLFRNNLSETWLDEFASWCRLLWYLRQ | 58600
LSRAGTGGRAGTAKEAGEAAGGGEQQGEEAGGKEEAGAGAEGEAENGTGGKRN | 23400
LSRGSCFVFWIFFSVPPPLFPFIYSYIFFFSFLLWFSVFVSVVFSFFSFWFFF | 55700
LSRKASELRHATRNWALHSKHEEWNVSFRELARKYLIRPFLLMINPVCFLMSF | 74700
LSRVTGKEHDQMCRIVLGILVDLRLPDNQNPTRLIWAVRALLDFLYLAQYPIH | 67200
LSSFALLSSGYFLDVFFLFFCFFVFFVFPFLFLLSTVNTHAIFFFFLSFSFVI | 60300
LSSFFLGLLHIGFSLVGYLSLLRISPNVFSVLPRDHTWFNISRFLVLCTILPL | 59300
LSSLPPSAPPFPPPSPLPPPLCFPLPPLFPPFLPSLSFPLSPPPSHFPFPLIP | 27100
LSSSPSAQIATNTNVVFILGSDDKRVKEVGDALKTKLGVKGGGKGSKWSGKFG | 33200
LSSSPSAQMATNTNVVVVIGDDKRVKEVGDALKTKLGVKGGGKGMRWSGKFVG | 26700
LSSSPSSQSASSTSTVLVVGTDDKKVKEAGDELKSKLGVKGGGKGPRWSGKFT | 23800
LSSSSSVQTSAATTVVLVSGSDDKLVKAAGDALRARLGVKGGGKGQKWSGKFT | 17600
LSSSVPIEAETFSSFRPDMNMTMNMNLHNASTSSFNNEAFWKPLDSAIDHHSG | 53500
LSSYLLKNALDVFCKYLPHVSKPVETVFKVKRKYSWMVLFLLYCILTHTNYHC | 26800
LSTLFYIFCRYALVANFLYSLSIIKGSHIINCDIGYMICGVLSIFGHIGIIAV | 49800
LSTVLKWSYEEIQVHIMTMRKEILNRRNHAYYDMYVLLLQLLLHIADSLTRGS | 45500
LSVSLVYNSAYLLQRISFWVISFSTYTLPTWLFTLFSTSLTFTMNFTTLLIIV | 78700
LSVSVQGGQLQLRGLNITLTRCHDFMRNIFPLDFPQGRLLALILSLRLFFLST | 84500
LSVVHISAPGYQAFFLLQSFRYILLWVLSFLSHFFLPFFLLCQGCFLVQHLPT | 54000
LSYCHRPVFTCCDLYRTCLYCSIFYLLSFPILLPPSISLHIILLFSHTILIIL | 31700
LTDIQRASKLFRVMQDFRYLRLLVHRITLWIDDQHCASLGTNIYYTFLMRGRF | 53200

Sequence | transcriptional activation domain activity
LTDWNVVSNKPITGPADPNEDVYIGRSETAMWMRVVSSWVCMLLYSWSLLAPV | 68000
LTEHSNVNSVIWTNDLLNLNFTNILNMGLYINPKNLIPISGNNNNNKSNEEDD | 62300
LTEVTSPRFIASIIACLCNHFAWFFYFIDPHHYHALFTPVEICLFFLVVVWFV | 52100
LTHEFRMGLIPLGLVALLSSGTTLTLICFICWRLVTWKLHYNTFLGYNQYVLL | 50400
LTHEPSKPPRRVPYTTLLHTVPLLIILTVLSAVVCYVHILLLRVFVKPVVIGT | 46600
LTHGRERSLIWKAKSSLNKWMFLVLRYFALLDLMFTVAVDTNFHVKYNTPFCI | 72400
LTHLRQLLEVKRTRRSLFVFRKTLGRIIRPVITWTYIFFFTLSMWTKPIVPLI | 36900
LTKKALDRLLGGDLSSLVAATISVSDWILDVAISSHDRISCILVTAHNTVLQA | 35700
LTLFVHFVKLSGILGEVLRRIYSPKAKINGYRTKTMSQTVWSLQRMLNEWLTN | 53300
LTNLNEIDFTNMFCNDNFIQNYNQGLMELLTEPTPGPSSSSCILPSTPTRPLS | 83000
LTPFSPPHFPLFLPSILFSFPPPLSSHFLLFPYALSPLLLLLFPPLCSSQFTP | 45700
LTPSSEQVIPACSTRTSTARASAGPSTKGAASRPSSSVSTRSRAPTPSSKKSC | 29300
LTQRNTCITGGPFWFFFFFFCLLVFSLPPSLKLFPTLPRITCLFSHVFFFFFP | 15700
LTQSRGFIWPPILLAVFFSALGGFYWWSASFFLLASPVAFAPCLFWVLLLFLF | 18000
LTVLGWLSTRKNMSFKSTPSNIRQSLKYSHIPLCLFYSSFTKFFLLLLLSIWD | 42100
LTWDVFKLALFFCLFQDISFSFCTFLLCFFLICFAYIVYPLSLSLLNGVLFDP | 44900
LTYRVYIMGIGIWMTYLGIGWFLCIILPFLFRFCRLMFWWRKLCFLQALFFFF | 62200
LVAFGMRFGGPTLLKLYFLPWMACHLIFALVPVIITLPMQWANHWIVALTYLH | 57900
LVANDIIMGIALGSHIIENSELAATWVDTIFSTWSVDGLRRMIVWLMGWPGGL | 27800
LVDVFGRIESCFQRIGIYTRVPPTTEMMDMIIQIMVEVLTILGIATKEMKQSR | 63000
LVEFLFAVNDEVANVLLVFFCVFVAGYFILTSLPLLFQQCPFQTPLTSFFWYA | 38600

Sequence | transcriptional activation domain activity
LVGALGPPGGLYSSSAGDTQERRRRREGERALKGFEVGDKWAGEVARRLRRTA | 60100
LVGDANGCRVLPAFQLWPLLSTFNLLYSISSTSWLLYWVFTSLCYPAIFLVCL | 55700
LVGLDGRAKINCHFFAYVAFGSASLLVVFHVAFLINVSDVVLLLVMLVGLLRL | 31900
LVGLIGTLVAEPGLGADRFLLCFLFLSYYTLLTPSNLLVGIFWLVFFVLQLGY | 39700
LVHFILTGSDFIWFFSYTPEAVALYLFLVEWSKLNYFWVALMYIWNVMPLFLL | 63600
LVHGRWSYQRVADMHANFFYKNVIWTFGLFWYLPFNSFDATYLYHYTFILLCN | 61000
LVHNTLCMLDLIPLLSVRLLLMSLSICFGWYTIFVFAAGVIETVHLTIGRTFT | 33900
LVLKMILDRLAEPGDSLLNIDFSTLIHQFAKYLNKVPSNYVVLRIKIKICHLV | 61000
LVLLFSLYPLLLPLLPLFPFLLSLFLPLPLNLPKIPAAFFFVFLNIYFLFSIL | 27700
LVLQTDFLLMVERVDVCLEFLEAHRDFREVEIYLLRFQQCLTRAMTLIKMFFV | 51900
LVLRSPAILTLEEEEDVAANLSQYSVQCSEVDKFLLTYVILKLKLVKGKCLIF | 72300
LVLRSVILSLMVFLVIFCSEYFLFPFCHSICCYGYIYILIDSWVSFSLLVFFS | 65700
LVLTGDAHSTYDVEVLVLMYILICGPFNFISGQLGEYRSIALVNVEFVVVWPA | 63300
LVLVAILGIVIPLDGFFGYLLTSLAIIWCSYSSSSMFTVVGRMSSMKWLVAYP | 57000
LVLYHDKFTTYLFAVFFFSLLPHVISSLFFFFFFFFWFLIKCIAMTPQFLFFF | 34200
LVMAHYLYANACAKGEHLIVTTWDMYYEKWGFMLIFWNMAGVPLSYCHCTLYL | 65300
LVMWTVILCPVFSFPDRGHGSMLFFLFKLCLAMLLTYLLAMLWFHCVYCIVVF | 32700
LVPWRPQKVLWLKVFYLLTRYLAFVDIPINLYSYLGFGISLPACQVLFSWYCW | 56100
LVQIVCVAGMHVTLYEQSCLYKCENLKRIITSFHHVNRKVRDAFINLYGKLNP | 74600
LVRDGILYFFVYTYRNALYQVYVVFGLAAVATLTLNAQLVLNTFLFIIFYVLV | 56900
LVREHELLGVIICHLVKSNQSGLTDLEYLLNIVKKIDKYDNLLVHYFPALGAL | 24500

Sequence | transcriptional activation domain activity
LVRQEDLINIAFHFVAKIPCTWPLPLRKAIADLHHYGGLHVGCTVSALFWYIL | 45300
LVSALWVLNTLHSALMFHLVYHYLILNAFDLFELSQNVWSLPASMIVHLIMAF | 47500
LVSHTVFKIIAICRHYAPPDGYMLAYVLCSSFALASTLWCTLLIICRIVILVQ | 39100
LVTVRTMYRSYVEHGSGIGLTFARLITKDGLVLAISDFVLVFSTFLCVPFVKL | 44300
LVVCCLASQVFIDSILLLPVKIVPPFYRLLSGVVNLVICRLTLFFLGFWWIPV | 59500
LVVFVFLILVVFVFLILVVFVFLILLILAFFVFLILLALLIFLILLVFLVFLV | 30600
LVVKVLNNTAFSPFFTFFIPVLYWSQNQSWSAPTVFWSTAWFLLVCIFSLLKL | 20900
LVVVLAVTKVMLLVLLIISYQILKQLLGIYFKCIHFLIYFFMLPYYGTLLSIL | 47500
LVWLDNWPAGLKLNTELSRFLCLCFMSLTDIWGNLLAPYLPLILRIIGIMGRT | 57200
LVYLARSLFFSLLFKRLYILYFLEVCIWHIFGFFFYLITLCANLVMPLLLCSV | 57600
LVYNDCMYIIFHLHMFEYRYGKQLAKTLLYWTYAHTHFCQLVQVESALRQVIQ | 48100
LVYPIVYLYMDRFFMFVLCSPPSHVLGCWESVTVRTYVGILFPLLICCLFYVL | 41100
LWDANSFLTPMAQGLFKNLKSFEMLGMNCKVIRALILLIHRLWLLTNRLYRYN | 34000
LWELLLNILKENGAKEKCILPCIVDFLPKNLVLVHCIHAYLHFRILVGLQCMT | 33700
LWFFFKGMDGMLHPPCSTWTFFFAKVNLYTWLRTFMKIVFVFMGLLHAIIIFW | 60200
LWGHVVMEFCCWDFVRRASGLDSILLLLVYIFSSLPYFFFVLFVCHIAILLLT | 34500
LWHLVYEPILKGIHEHLLLLDEIIEIFGPDVEKELFRRVYYYLSLLCMHSGTH | 24600
LWLYLAKQLFYEDLGWFFLLLAFYFTWPLIFLLFLIFWMLFVLVYVLFYLVSF | 52300
LWNSYLQSMDDTTGKNSGNYQQVDNDDNMSLLNLPILEETVSSGQDDKVEPDE | 54600
LWPLPVITRYIIGISLLVSMLNFMGLLHLKCSSPSYVIHRLEIANLLMSPFLF | 46200
